In a protein production outcome set (Wang et al. 2014):

Assay: label from the status in PepcDB records

Row | Sequence | protein production
1 | MTLPAPWRVRHLPLLLLLLAAPLLALANSDPLPSWKDGPSKQGILAFVQAVTTQGSPDYVKAAERIAVFDNDGTLWSEQPAYFEVLFAFDEIKRLAPQHPEWKTRQPFQAVLEGDHQALAASGMHGLLQIIGATHTGISSEAFIDNARRWLAEARHPKTGRPFNQMIYQPMLEMLDYLRSQDFKTYIVSGGDTAFMRAFAESAYGIPPEQVIGSNFVTQWQFQDGQPSILRTAKLAHNDDGPGKPESIDGIIGRRPLLAFGNSDGDLQMLQWTAAGSGKRFMALVHHTDAAREWAYDRKSQVGRLDQALDQAQQHGWTLVDMAAEWRRIYPFEPLAPEQAQ | failed
2 | MTLPIPSSPPRIKINLPCFQYVGTEMSVDIITSIWFMTLTEFATFMPKRDMCPKPASIPPAAPTVENTVPTTIPQINRRSSITSSSSTTVDNFVIKIYQVYRRMQTLTLEISTTKRSVLNKLKRASLTFQQFKNLLYLCLLEYYKNTKDVKPFLSVSFLEKFVKGKENLPFENEKIKSYREKLKELWEKEIGSDTVKALARQVSKEVKSVLEKWKKGERAFLPRPRKLKKVHKFTVPTNPNMLVDKRKLKRRRENSIVVRLGISFGAVKVKIPQGINIRDVKITWYEDTEVIFRISYEVPKAQKELLKEKWLSIDLGVRNLVSCISNDENLRSFIVDGNPLKSFNQWVNKLSAKLRSEGKERLERKLWRYRKKRIKGFFHQVANLIVRVCLERGIGRVIIPNSLNEEYQKDSEKGARFNQEFRFIPLGELVKMIEYKCELCGIEVVKEDESWTSKVSSVSGNIEVLKEEIPEGEVKKLKFEGRRIKRGLFRDRRLKKVFNADLNGALNLAIKALGKKVREEFLSLRNWLDKLSRPVKVNLFRYPASLPVLWEIAGSKSCSPKGDSEGHFAGSVSDLITFAHF | failed
3 | MTLSAIQPNDMALYHYDSCPFCAKTRHAINELDLNIELRNIQKNHQHRIELQQGGNKTQVPCLRIGQSNGKAQWLYESGDIINFLRNRK | failed
4 | MTLSKRLALLGAQSAITLAKPRGLGSSLGLLDRRPFPYRQFSELTKANGRRAFLVDTLALVRSLEAQGVPSKQAEAITSAITEVLNDSLENVSESFVSKAEMQKIEMIQDSNLSKFKSEVKSSQVTSTLVV | failed
5 | MTLTLGEFIKILEATGYPVAYSHFTATPGNPVPAPPYICFLVDGSANLMADNKVYHKINDVNIELYTTKKDLVAEAKLEQVLDDHEIPYGSYGTFIESENMYQKFYETRLI | failed
6 | MTLTLLLLIFILISFISALTIIFITVKKGIFFNRLYLQSIIVCILFFTNWILYLSTFYALLPEKISEFLFLPIWFFLCILSFITFWREWRNNRVFSICIGFLSFISFLFVLFLLVLSGM | failed
7 | MTLVTALIVLLVVLGVFFTLVAAVGVLRLPDVYTRSHAATKADTLGAGFAIAAVGLYFGTAGELVRAGLLLVFIYVTNPTAAHAITRAAYSQDVDVWTVDDNDTGTDTASAADGGDSQ | failed
8 | MTMDGDSSTTDASQLGISADYIGGSHYVIQPHDDTEDSMNDHEDTNGSKESFREQDIYLPIANVARIMKNAIPQTGKIAKDAKECVQECVSEFISFITSEASERCHQEKRKTINGEDILFAMSTLGFDSYVEPLKLYLQKFREAMKGEKGIGGAVSATDGLSEELTEEAFTNQLPAGLITADGQQQNVMVYTTSYQQISGVQQIQFS | failed
9 | MTMEPRVLRREEWDSWYGSLIRAFGGVPEPAEELELFRELTRVDRSIGVWERDGEAEACVGTTGSFDFRMTVPGGAQVRAAGVTMVSVAATHRRRGVLTSMMRRQLDDVRAWGEPLAVLTASEPAIYGRFGYGAATFSLSAEIDTSRVRLSVPAGTDDVRLRYAAPADVLDACEAVYARLVPGRPGMLARRPGWERLALLDPESGRDGASPLQCVVARRGGEVTGFARFRVRPAWGPEGAGGTVVLDDLAGLDPATEAALWRFLYDVDLTSRLAVRGRPVDEAWQYQVSDIRRCRPESRDALYVRLVDVGAALAARTYQAPVDVVFEVEDAFCPWNAGRWRLSGDAKGASCERTSDGADLALSVRELGAAYLGGVRLSSLGAAGRVREVRAGALAEASVGFGSDVAPWLPHGF | failed
10 | MTMKETFTLVATAAAGLEAVVGRELRELGYETQVENGKVRFQGDVRAIAETNLWLRAADRIKIVVGEFPARTFEELFQGVFALDWENYLPLGAKFPISKAKCVKSKLRNEPSVQAISKKAVVKKLQKYFHRPEGVPLQETGAEFKIEVSILKDKATVLIDTTGASLFKRGYRTDKGGAPIKENMAAAILELSNWYPDKPLIDPTCGSGTFCIEAAMIGMNIAPGFNRDFAFEAWNWVGKDLVQSVRDEADSKANYDVALDIMGCDIDSRMVEIAKANAREAGLEDVVKFKQMRLQDLKTDKINGVIISNPPYGERLLDDKAVDILYNEMGQTFAPLKTWSKFILTSDEQFESKYGMKADKKRKLYNGTLRVDLYQYFGERVRRSEARKVN | failed
